Literature values as cited in paper PMC4122144.

Columns and labels:
Conditions in all cases: Not stated. Presumably ground-state bR, since the values are compared with calculations on the 1QHJ ground-state structure.
Arg82 = Arg82 (UniProt position 95, PIYWARYADWL)
Asp115 = Asp115 (UniProt position 128, ALVGADGIMIG)
Asp212 = Asp212 (UniProt position 225, LFMVLDVSAKV)
Asp85 = Asp85 (UniProt position 98, WARYADWLFTT)
Asp96 = Asp96 (UniProt position 109, PLLLLDLALLV)

## Bacteriorhodopsin (Halobacterium salinarum (not stated in the article; inferred))
Arg82
  pKa: >13.8
Asp115
  pKa: > 9.5
Asp212
  pKa: < 2.5
Asp85
  pKa: 2.6
Asp96
  pKa: >12.0
